Among the data in patent US20250313602A1 are Kd values, retold here.

Several values for one entry are separate records, joined by “and”; a condition that tells them apart may be missing. Identical values can stand only once.

The target in this assay is FcRn. Nature of the assay: BLI. On the technique in general: BLI is a label-free optical method that tracks binding on a fibre tip over time.
Chain of FcRn (main, as listed by the source, chain 1 of 2): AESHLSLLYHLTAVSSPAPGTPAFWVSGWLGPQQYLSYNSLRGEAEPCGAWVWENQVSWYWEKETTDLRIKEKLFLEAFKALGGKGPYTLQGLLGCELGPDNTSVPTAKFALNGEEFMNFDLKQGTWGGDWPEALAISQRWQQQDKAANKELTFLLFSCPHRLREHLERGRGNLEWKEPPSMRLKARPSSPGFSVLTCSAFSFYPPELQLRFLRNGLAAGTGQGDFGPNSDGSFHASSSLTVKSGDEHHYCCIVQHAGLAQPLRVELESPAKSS
Chain of FcRn (main, as listed by the source, chain 2 of 2): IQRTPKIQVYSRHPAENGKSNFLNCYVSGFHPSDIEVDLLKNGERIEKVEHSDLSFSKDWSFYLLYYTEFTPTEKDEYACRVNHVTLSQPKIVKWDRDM

In the case of Herceptin, the Kd – broadly, the constant that tells how readily two partners part at equilibrium – was 2.83 nM and 1.27 nM.
